The assay addresses T1, A1 domain of tenascin-C (TNC-A1) (UniProt P24821 1073-1163, limits assumed).
T1 construct: domain: A1; Coupled to Sepharose resin in the immunoreactivity test; also called extra-domain A1 of tenascin-C
T1 sequence (looked up): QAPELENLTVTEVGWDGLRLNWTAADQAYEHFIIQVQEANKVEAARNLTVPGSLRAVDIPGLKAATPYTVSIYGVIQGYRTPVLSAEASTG
Briefly: real-time interaction analysis, BIAcore 3000.

B1: F16 human monoclonal antibody (original clone 4A1-F16) (antibody, V domains shown)
VH: EVQLLESGGGLVQPGGSLRLSCAASGFTFSRYGASWVRQAPGKGLEWVSAISGSGGSTYYADSVKGRFTISRDNSKNTLYLQMNSLRAEDTAVYYCAKAHNAFDYWGQGTLVTVSR
VL: SSELTQDPAVSVALGQTVRITCQGDSLRSYYASWYQQKPGQAPVLVIYGKNNRPSGIPDRFSGSSSGNTASLTITGAQAEDEADYYCNSSVYTMPPVVFGGGTKLTVL
For the molecule B1, the koff (commonly a measure of how fast the partners let go of each other) is less than 0.01 s⁻¹.

The values above are taken from patent publication US20110250170A1 (PHILOGEN S P A, published 2011).
